According to US9284543B2, “Neutral active soluble truncated PH20 polypeptides and uses thereof” (Halozyme, Inc., priority 2008, dated 2016):

B1: SPAM1-FYNA: C-terminally truncated human PH20, precursor 484 aa (SEQ ID NO:16), mature 449 aa (SEQ ID NO:68) (protein, listed as Homo sapiens)
chain 1: MGVLKFKHIFFRSFVKSSGVSQIVFTFLLIPCCLTLNFRAPPVIPNVPFLWAWNAPSEFCLGKFDEPLDMSLFSFIGSPRINATGQGVTIFYVDRLGYYPYIDSITGVTVNGGIPQKISLQDHLDKAKKDITFYMPVDNLGMAVIDWEEWRPTWARNWKPKDVYKNRSIELVQQQNVQLSLTEATEKAKQEFEKAGKDFLVETIKLGKLLRPNHLWGYYLFPDCYNHHYKKPGYNGSCFNVEIKRNDDLSWLWNESTALYPSIYLNTQQSPVAATLYVRNRVREAIRVSKIPDAKSPLPVFAYTRIVFTDQVLKFLSQDELVYTFGETVALGASGIVIWGTLSIMRSMKSCLLLDNYMETILNPYIINVTLAAKMCSQVLCQEQGVCIRKNWNSSDYLHLNPDNFAIQLEKGGKFTVRGKPTLEDLEQFSEKFYCSCYSTLSCKEKADVKDTDAVDVCIADGVCIDAFLKPPMETEEPQIFYNA
chain 2: LNFRAPPVIPNVPFLWAWNAPSEFCLGKFDEPLDMSLFSFIGSPRINATGQGVTIFYVDRLGYYPYIDSITGVTVNGGIPQKISLQDHLDKAKKDITFYMPVDNLGMAVIDWEEWRPTWARNWKPKDVYKNRSIELVQQQNVQLSLTEATEKAKQEFEKAGKDFLVETIKLGKLLRPNHLWGYYLFPDCYNHHYKKPGYNGSCFNVEIKRNDDLSWLWNESTALYPSIYLNTQQSPVAATLYVRNRVREAIRVSKIPDAKSPLPVFAYTRIVFTDQVLKFLSQDELVYTFGETVALGASGIVIWGTLSIMRSMKSCLLLDNYMETILNPYIINVTLAAKMCSQVLCQEQGVCIRKNWNSSDYLHLNPDNFAIQLEKGGKFTVRGKPTLEDLEQFSEKFYCSCYSTLSCKEKADVKDTDAVDVCIADGVCIDAFLKPPMETEEPQIFYNA
modifications: HuPH20 precursor 1-484; Mature HuPH20 36-484
B2: SPAM1-IFYN: C-terminally truncated human PH20, precursor 483 aa (SEQ ID NO:17), mature 448 aa (SEQ ID NO:69) (protein, listed as Homo sapiens)
chain 1: MGVLKFKHIFFRSFVKSSGVSQIVFTFLLIPCCLTLNFRAPPVIPNVPFLWAWNAPSEFCLGKFDEPLDMSLFSFIGSPRINATGQGVTIFYVDRLGYYPYIDSITGVTVNGGIPQKISLQDHLDKAKKDITFYMPVDNLGMAVIDWEEWRPTWARNWKPKDVYKNRSIELVQQQNVQLSLTEATEKAKQEFEKAGKDFLVETIKLGKLLRPNHLWGYYLFPDCYNHHYKKPGYNGSCFNVEIKRNDDLSWLWNESTALYPSIYLNTQQSPVAATLYVRNRVREAIRVSKIPDAKSPLPVFAYTRIVFTDQVLKFLSQDELVYTFGETVALGASGIVIWGTLSIMRSMKSCLLLDNYMETILNPYIINVTLAAKMCSQVLCQEQGVCIRKNWNSSDYLHLNPDNFAIQLEKGGKFTVRGKPTLEDLEQFSEKFYCSCYSTLSCKEKADVKDTDAVDVCIADGVCIDAFLKPPMETEEPQIFYN
chain 2: LNFRAPPVIPNVPFLWAWNAPSEFCLGKFDEPLDMSLFSFIGSPRINATGQGVTIFYVDRLGYYPYIDSITGVTVNGGIPQKISLQDHLDKAKKDITFYMPVDNLGMAVIDWEEWRPTWARNWKPKDVYKNRSIELVQQQNVQLSLTEATEKAKQEFEKAGKDFLVETIKLGKLLRPNHLWGYYLFPDCYNHHYKKPGYNGSCFNVEIKRNDDLSWLWNESTALYPSIYLNTQQSPVAATLYVRNRVREAIRVSKIPDAKSPLPVFAYTRIVFTDQVLKFLSQDELVYTFGETVALGASGIVIWGTLSIMRSMKSCLLLDNYMETILNPYIINVTLAAKMCSQVLCQEQGVCIRKNWNSSDYLHLNPDNFAIQLEKGGKFTVRGKPTLEDLEQFSEKFYCSCYSTLSCKEKADVKDTDAVDVCIADGVCIDAFLKPPMETEEPQIFYN
modifications: HuPH20 precursor 1-483; Mature HuPH20 36-483
B3: SPAM1-QIFY: C-terminally truncated human PH20, precursor 482 aa (SEQ ID NO:18), mature 447 aa (SEQ ID NO:70) (protein, listed as Homo sapiens)
chain 1: MGVLKFKHIFFRSFVKSSGVSQIVFTFLLIPCCLTLNFRAPPVIPNVPFLWAWNAPSEFCLGKFDEPLDMSLFSFIGSPRINATGQGVTIFYVDRLGYYPYIDSITGVTVNGGIPQKISLQDHLDKAKKDITFYMPVDNLGMAVIDWEEWRPTWARNWKPKDVYKNRSIELVQQQNVQLSLTEATEKAKQEFEKAGKDFLVETIKLGKLLRPNHLWGYYLFPDCYNHHYKKPGYNGSCFNVEIKRNDDLSWLWNESTALYPSIYLNTQQSPVAATLYVRNRVREAIRVSKIPDAKSPLPVFAYTRIVFTDQVLKFLSQDELVYTFGETVALGASGIVIWGTLSIMRSMKSCLLLDNYMETILNPYIINVTLAAKMCSQVLCQEQGVCIRKNWNSSDYLHLNPDNFAIQLEKGGKFTVRGKPTLEDLEQFSEKFYCSCYSTLSCKEKADVKDTDAVDVCIADGVCIDAFLKPPMETEEPQIFY
chain 2: LNFRAPPVIPNVPFLWAWNAPSEFCLGKFDEPLDMSLFSFIGSPRINATGQGVTIFYVDRLGYYPYIDSITGVTVNGGIPQKISLQDHLDKAKKDITFYMPVDNLGMAVIDWEEWRPTWARNWKPKDVYKNRSIELVQQQNVQLSLTEATEKAKQEFEKAGKDFLVETIKLGKLLRPNHLWGYYLFPDCYNHHYKKPGYNGSCFNVEIKRNDDLSWLWNESTALYPSIYLNTQQSPVAATLYVRNRVREAIRVSKIPDAKSPLPVFAYTRIVFTDQVLKFLSQDELVYTFGETVALGASGIVIWGTLSIMRSMKSCLLLDNYMETILNPYIINVTLAAKMCSQVLCQEQGVCIRKNWNSSDYLHLNPDNFAIQLEKGGKFTVRGKPTLEDLEQFSEKFYCSCYSTLSCKEKADVKDTDAVDVCIADGVCIDAFLKPPMETEEPQIFY
modifications: HuPH20 precursor 1-482; Mature HuPH20 36-482
B4: SPAM1-PQIF: C-terminally truncated human PH20, precursor 481 aa (SEQ ID NO:19), mature 446 aa (SEQ ID NO:71) (protein, listed as Homo sapiens)
chain 1: MGVLKFKHIFFRSFVKSSGVSQIVFTFLLIPCCLTLNFRAPPVIPNVPFLWAWNAPSEFCLGKFDEPLDMSLFSFIGSPRINATGQGVTIFYVDRLGYYPYIDSITGVTVNGGIPQKISLQDHLDKAKKDITFYMPVDNLGMAVIDWEEWRPTWARNWKPKDVYKNRSIELVQQQNVQLSLTEATEKAKQEFEKAGKDFLVETIKLGKLLRPNHLWGYYLFPDCYNHHYKKPGYNGSCFNVEIKRNDDLSWLWNESTALYPSIYLNTQQSPVAATLYVRNRVREAIRVSKIPDAKSPLPVFAYTRIVFTDQVLKFLSQDELVYTFGETVALGASGIVIWGTLSIMRSMKSCLLLDNYMETILNPYIINVTLAAKMCSQVLCQEQGVCIRKNWNSSDYLHLNPDNFAIQLEKGGKFTVRGKPTLEDLEQFSEKFYCSCYSTLSCKEKADVKDTDAVDVCIADGVCIDAFLKPPMETEEPQIF
chain 2: LNFRAPPVIPNVPFLWAWNAPSEFCLGKFDEPLDMSLFSFIGSPRINATGQGVTIFYVDRLGYYPYIDSITGVTVNGGIPQKISLQDHLDKAKKDITFYMPVDNLGMAVIDWEEWRPTWARNWKPKDVYKNRSIELVQQQNVQLSLTEATEKAKQEFEKAGKDFLVETIKLGKLLRPNHLWGYYLFPDCYNHHYKKPGYNGSCFNVEIKRNDDLSWLWNESTALYPSIYLNTQQSPVAATLYVRNRVREAIRVSKIPDAKSPLPVFAYTRIVFTDQVLKFLSQDELVYTFGETVALGASGIVIWGTLSIMRSMKSCLLLDNYMETILNPYIINVTLAAKMCSQVLCQEQGVCIRKNWNSSDYLHLNPDNFAIQLEKGGKFTVRGKPTLEDLEQFSEKFYCSCYSTLSCKEKADVKDTDAVDVCIADGVCIDAFLKPPMETEEPQIF
modifications: HuPH20 precursor 1-481; Mature HuPH20 36-481
B5: SPAM1-EPQI: C-terminally truncated human PH20, precursor 480 aa (SEQ ID NO:20), mature 445 aa (SEQ ID NO:72) (protein, listed as Homo sapiens)
chain 1: MGVLKFKHIFFRSFVKSSGVSQIVFTFLLIPCCLTLNFRAPPVIPNVPFLWAWNAPSEFCLGKFDEPLDMSLFSFIGSPRINATGQGVTIFYVDRLGYYPYIDSITGVTVNGGIPQKISLQDHLDKAKKDITFYMPVDNLGMAVIDWEEWRPTWARNWKPKDVYKNRSIELVQQQNVQLSLTEATEKAKQEFEKAGKDFLVETIKLGKLLRPNHLWGYYLFPDCYNHHYKKPGYNGSCFNVEIKRNDDLSWLWNESTALYPSIYLNTQQSPVAATLYVRNRVREAIRVSKIPDAKSPLPVFAYTRIVFTDQVLKFLSQDELVYTFGETVALGASGIVIWGTLSIMRSMKSCLLLDNYMETILNPYIINVTLAAKMCSQVLCQEQGVCIRKNWNSSDYLHLNPDNFAIQLEKGGKFTVRGKPTLEDLEQFSEKFYCSCYSTLSCKEKADVKDTDAVDVCIADGVCIDAFLKPPMETEEPQI
chain 2: LNFRAPPVIPNVPFLWAWNAPSEFCLGKFDEPLDMSLFSFIGSPRINATGQGVTIFYVDRLGYYPYIDSITGVTVNGGIPQKISLQDHLDKAKKDITFYMPVDNLGMAVIDWEEWRPTWARNWKPKDVYKNRSIELVQQQNVQLSLTEATEKAKQEFEKAGKDFLVETIKLGKLLRPNHLWGYYLFPDCYNHHYKKPGYNGSCFNVEIKRNDDLSWLWNESTALYPSIYLNTQQSPVAATLYVRNRVREAIRVSKIPDAKSPLPVFAYTRIVFTDQVLKFLSQDELVYTFGETVALGASGIVIWGTLSIMRSMKSCLLLDNYMETILNPYIINVTLAAKMCSQVLCQEQGVCIRKNWNSSDYLHLNPDNFAIQLEKGGKFTVRGKPTLEDLEQFSEKFYCSCYSTLSCKEKADVKDTDAVDVCIADGVCIDAFLKPPMETEEPQI
modifications: HuPH20 precursor 1-480; Mature HuPH20 36-480

Experiments:
[1] = Microtiter hyaluronidase activity assay with biotinylated-hyaluronic acid; assay type: biochemical; settings: Table 6, 72 hour post transfection supernatant
CHO-S cells = test: Western blot analysis of PH20 expression in media and cells after transient expression; assay type: cell-based, Chinese Hamster; settings: media versus cells
In short: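 CHO-S cells were transiently transfected with mutant PH20-HZ24 plasmids using GeneJuice and expressed for 48-72 h at 37 °C, 5% CO2. Media and cells were harvested separately, with PI-PLC treatment used to release GPI-anchored protein. Non-reduced samples were blotted with rabbit anti-PH20 (0.5 μg/mL), and a band near 66 kDa was scored as PH20.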

Molecule	pH 5.5 Activity [1]	pH 7.4 Activity [1]	Expressed in Media (CHO-S cells)
B1	1.262 Units/ml	1.4985 Units/ml	YES
B2	2.3085 Units/ml	2.45 Units/ml	YES
B3	1.647 Units/ml	2.032 Units/ml	YES
B4	1.701 Units/ml	1.818 Units/ml	YES
B5	1.6425 Units/ml	2.1825 Units/ml	YES
